# ± gives the standard error. This sample holds only a part of the variants without activity.
# B1: glmS ribozyme (parent)
# chain: AUAAAAGCGCCAGAACUACAGAAAUGUAGUUGACGAGGAGGAGGUUUAUCGAAUUUUCGGCGGAUGCCUCCAAA
# Variants of: B1
# Test: self-cleavage kobs at 2500 uM GlcN6P; higher = faster cleavage; RNA array
# Conditions: with glucosamine-6-phosphate
# Procedure, shortened: (§1)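 Sequenced MiSeq chips were the platform: E. coli RNA polymerase transcribed barcoded ribozyme variants on them in situ, and a hybridised Cy3 probe tracked these at 37 °C. After glucosamine-6-phosphate (40 μM to 10 mM) in HEPES/KCl/Mg(OAc)2 buffer was flowed in, tiles were imaged over ~14 h. Signals normalised to baseline and to non-cleaving reference variants were reduced to per-tile medians and fit to one- or two-exponential decays to obtain kobs. kcat and KM were derived through weighted Michaelis–Menten fits across concentrations.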
row,Variant,self-cleavage kobs at 2500 uM GlcN6P [s⁻¹]
1,AUAAAAGCGCCAGAACUACAGAAAUGUAGUUGAGCAGGAGGAGGUUUAUCCAAUUUGUGGCGGAUGCCUCCAAA [C34G G35C G51C U57G C58U],< 1e-05
2,AUAAAAGCGCCAGAACUACAGAAAUGUAGUUGACGACGAGCAGGUUCAUCGAAUUUUCUGCGGAUGCCUCCAAA [G37C G41C U47C G59U],< 1e-05
3,AUAAAAGCGCCAGAACUACAGAAAUGUAGUUGACGAGGGGGAGGUUGAUCGAAUUUUCGGCGGAUGCGUCCAAA [A39G U47G C68G],5.94e-05 ± 2.4e-05
4,AUAAAAGCGCCAGAACUACAGAAAUGUAGUUGACGAGAAGGAGGUUUAUCGAAUUUUCGGCAUAUGCCUCCAAA [G38A G62A G63U],< 1e-05
5,AUAAAAGCGCCAGAACUACAGAAAUGUAGUUGACGAAGAGGACGUUUAUCGAAUUUUGGGCGGAUGCCUCCAAA [G37A G43C C58G],< 1e-05
6,AUAAAAGCGCCAGAACUACAGAAAUGUAGUUGACCAGGAGGAGGUUUGUCUAAUUUGCGUCGGAUGCCUCCAAA [G35C A48G G51U U57G G60U],< 1e-05
7,AUAAAAGCGCCAGAACUACAGAAAUGUAGUUGACUAGGAGAAGGUUUAUCGUAUUUUCGGCGGAUGCCUCUAAA [G35U G41A A52U C71U],< 1e-05
8,AUAAAAGCGCCAGAACUACAGAAAUGUAGUUGACGAGCAGGAGGUUUAUCGAUUUUUCGGCGGAUGCCUCCAAA [G38C A53U],< 1e-05
9,AUAAAAGCGCCAGAACUACAGAAAUGUAGUUGACGUGGAGGAGGUUUAUCGAAUCUUGGGCGGAUGCCUCCAAA [A36U U55C C58G],< 1e-05
10,AUAAAAGCGCCAGAACUACAGAAAUGUAGUUGACGACGAGGAGGUUUAUCGAAUUUUCGGCGGAUGUCUCAAAA [G37C C67U C71A],5.9e-05 ± 2.4e-05
11,AUAAAAGCGCCAGAACUACAGAAAUGUAGUUGACGAUGAGGAGGUUUAUCGACUUUUCGGCGGAUGCCUCCAAA [G37U A53C],< 1e-05
12,AUAAAAGCGCCAGAACUACAGAAAUGUAGUUGAGGAGAAGGAGUUUUAUCGAAUUUUCGGCGAAUGCCUCCAAA [C34G G38A G44U G63A],< 1e-05
13,AUAAAAGCGCCAGAACUACAGAAAUGUAGUUGACAAGGAGGAGGUUUAUUGAAUUUUCGGCGGAUGCCUCCAAA [G35A C50U],2.72e-05 ± 1.2e-05
14,AUAAAAGCGCCAGAACUACAGAAAUGUAGUUGACGAGGAGAAGGUUUAUCGACCUUUCGCCGUAUGCCUCCAAA [G41A A53C U54C G60C G63U],< 1e-05
15,AUAAAAGCGCCAGAACUACAGAAAUGUAGUUGACGUGGAGGAGGUUUAUCGAAUUUUCGGCGGAUGCCGCAAAA [A36U U69G C71A],0.000556 ± 0.00021
16,AUAAAAGCGCCAGAACUACAGAAAUGUAGUUGACGAGGAUGAGGUUUAACGAAUUUUCGGCCGAUGCUUCCAAA [G40U U49A G62C C68U],< 1e-05

row,Variant,self-cleavage kobs at 2500 uM GlcN6P [s⁻¹]
1,AUAAAAGCGCCAGAACUACAGAAAUGUAGUUGACGAGGACGAGGUUUAUCGAAUUUUCGGCGGUUGCUUCCAAA [G40C A64U C68U],< 1e-05
2,AUAAAAGCGCCAGAACUACAGAAAUGUAGUUGACAAGGAUGAGGUUUAUCAAAUUUUCGGCGGAUGCCGCCAAA [G35A G40U G51A U69G],< 1e-05
3,AUAAAAGCGCCAGAACUACAGAAAUGUAGUUGACGAGGAAGAGGUUUAUCGAAUACUCGGCGGAUGCCUCCAAA [G40A U55A U56C],0.000458 ± 0.00017
4,AUAAAAGCGCCAGAACUACAGAAAUGUAGUUGACGAGUAGGAGGGUUAUCAAAUUUUCGGCGGAUGUCUCCAAA [G38U U45G G51A C67U],< 1e-05
5,AUAAAAGCGCCAGAACUACAGAAAUGUAGUUGACGAAGAGGAGGUUUAUCGAUUGUUCGGCGGAUGCCUCCAAA [G37A A53U U55G],0.000444 ± 9.3e-05
6,AUAAAAGCGCCAGAACUACAGAAAUGUAGUUGACGAGGACGAGGUUUAUCGAAGUUUCGGCGGAUGCCUUCAAA [G40C U54G C70U],0.000933 ± 0.00021
7,AUAAAAGCGCCAGAACUACAGAAAUGUAGUUGACGAAGACGGGGUUUAUCGAAUUUUCGGCGGAUGCCUCCAAA [G37A G40C A42G],0.000126 ± 4.4e-05
8,AUAAAAGCGCCAGAACUACAGAAAUGUAGUUGACGAUGAGGAGUUUUAUCGAAUUUUCAGCGGAUGCCUUCAAA [G37U G44U G59A C70U],< 1e-05
9,AUAAAAGCGCCAGAACUACAGAAAUGUAGUUGACGGGGAGUAGGUUUAUCGAAUUUUCGACGGAUGCCUCCAAA [A36G G41U G60A],< 1e-05
10,AUAAAAGCGCCAGAACUACAGAAAUGUAGUUGACGAUGUGGAGCUUUAUGGAAUUUUCGGCGGAUGCCUUCAAA [G37U A39U G44C C50G C70U],< 1e-05
11,AUAAAAGCGCCAGAACUACAGAAAUGUAGUUGACCACGAGGAGGUUUAUCGAAAUUUCGGCGGAUUCCUCCAAA [G35C G37C U54A G66U],< 1e-05
12,AUAAAAGCGCCAGAACUACAGAAAUGUAGUUGACGAGAAGGAGGUUUAUCCUAUUUUCGGCAGAUGCCUCCAAA [G38A G51C A52U G62A],< 1e-05
13,AUAAAAGCGCCAGAACUACAGAAAUGUAGUUGACGAGGAUGAGGUUGAUCGAACUUUCGGCGGAUGCCUCCAAA [G40U U47G U54C],0.00079 ± 0.00014
14,AUAAAAGCGCCAGAACUACAGAAAUGUAGUUGAGGAGGAGGAGGUUUAUCGAAUUUUAGGCGGAUGCCUCUAAA [C34G C58A C71U],< 1e-05
15,AUAAAAGCGCCAGAACUACAGAAAUGUAGUUGACGAAGACGAGGUUGAUCGAAUUGUCGCCGGAUGCCUCGAAA [G37A G40C U47G U56G G60C C71G],< 1e-05
16,AUAAAAGCGCCAGAACUACAGAAAUGUAGUUGACGAGGACGAGAUUUAUCGAAAUUUCGGAGGGUGCCUCCAAA [G40C G44A U54A C61A A64G],< 1e-05

# Variants of: B1
# Test: self-cleavage kobs at 10000 uM GlcN6P; higher = faster cleavage; RNA array
# Conditions: with glucosamine-6-phosphate
# Procedure, shortened: as §1
row,Variant,self-cleavage kobs at 10000 uM GlcN6P [s⁻¹]
1,AUAAAAGCGCCAGAACUACAGAAAUGUAGUUGACGAGCAGGAGGUUUAUCGAUUUUUCGGCGGAUGCCUCCAAA [G38C A53U],< 1e-05
2,AUAAAAGCGCCAGAACUACAGAAAUGUAGUUGACGAUGAGGAGGUUUAUCGACUUUUCGGCGGAUGCCUCCAAA [G37U A53C],< 1e-05
3,AUAAAAGCGCCAGAACUACAGAAAUGUAGUUGACAAGGAGGAGGUUUAUUGAAUUUUCGGCGGAUGCCUCCAAA [G35A C50U],4.87e-05 ± 8e-06
4,AUAAAAGCGCCAGAACUACAGAAAUGUAGUUGACGUGGAGGAGGUUUAUCGAAUUUUCGGCGGAUGCCGCAAAA [A36U U69G C71A],5.84e-05 ± 1.8e-05
5,AUAAAAGCGCCAGAACUACAGAAAUGUAGUUGACGAGGACGAGGUUUAUCGAAUUUUCGGCGGUUGCUUCCAAA [G40C A64U C68U],< 1e-05

# Reference: the supplement of paper PMC7125110
